According to the nanobody polyreactivity screen of Harvey et al. (2022):

Experiment: yeast display, Sf9 membrane polyspecificity reagent, FACS + sequencing; frameworks hold sequencing errors
Method in brief: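 Using colony PCR, genes from sorted yeast display clones were amplified, then sequenced on MiSeq at 2 × 250 and filtered by CDR length. The clones had been stained with 10% biotinylated, detergent-solubilized Sf9 membrane reagent for 1 hour at 4 °C and sorted by FACS into low and high (top ~1%) gates on anti-HA and streptavidin fluorescence. Polyreactivity labels come from the gate of origin.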

Sequence | polyreactivity (PSR sort gate)
QVQLVESGGGLVQAGGSLRLSCAASGRIFWDYAMGWYRQAPGKERELVAVITFSGDSTYYADSVKGRFTISRDYAKNTVYLQMNSLKPEDTAVYYCAAARAIRQFWYVATFEYWGQGTQVTVSS | low polyreactivity
QVQLVESGGGLVQAGGSLRLSCAASGRTFTAYAMGWYRQAPGKERELVAAITSGGSTYYADSVKGRFTISRDNAKNTVYLQMNSLKPEDTAVYYCATDLYSFYWPEYEYWGQGTQVTVSS | low polyreactivity
HVQLVESGGGLVQAGASLRLICAASGRIFWGYAMGWSRHAPGKERELVAGITYSGGSTYYADSVKGRFTISRDNAKNTVYLQMNSLKPEDTADYYCAAAKSYRSGSWYEYWGQGTQVTVSS | high polyreactivity
QVQLVESGGGLVQAGGSLRLSCAASGSTFSFYDMGWSRQAPGKERELVAAITGSGGTTYYADSVQGRFTISRDNAKNTVYFQMNSLKPEDTAVYFCAADSLESYPDYEYDFWGQGTQVTVSS | low polyreactivity
QVQLVESGGGLVQAGGSLRLSCAASGSTFVYYAMGWYRQAPGKERELVADISWSGGDTYYADSVKGRFTISRDNAKNTVYLQMNSLKPEDTAVYYCAAEWSTPSYVGFADGFEYWGQGTQVTVSS | low polyreactivity
QVQLVESGGGLVQAGGSLRLSCAASGSTFRGYAMGWYRQAPGKEREFVAAISRRGGTTYYADSVKGRFTISRDNAKNTVYLQMNSLKPEDTAVYYCNKVYYQHYLAFDYWGQGTQVNVSS | high polyreactivity
QVQLVESGGGLVQEGGSLRLSCAASASTLYKYAMGWYRQAPGKERELVAAISWSGSSTYYADSVKGRFTISRDNAKNTVYLQMNSLKPEDTAVYYCNARWQEPLKYDYWGQGTQVTVSS | low polyreactivity
QVQLVESGGGLVQAGGSLRLSCAASGSIFVDNAMGWYRQAPGKDRELVAVISWIGSSTYYADSVKGRFTISRDNAKNTDYFQMNSLKPEDTAVYYCAAAPSRTLLRQSKYYYWGQGTQVTVSS | low polyreactivity
QVQLVESGGGLVQAGGSLRLSCAASGYIFHRYAMGWYRQAPGKERELVAAITWTGARTYYADSVKGRFTISRDNAKNTVYLQMNSLKPEDTAVYYAAPASYSFAKSGYWGQGTQVTVSS | high polyreactivity
QVQLVESGGGLVQAGGSLRLSCAASGNIFDIYAMGRYRQAPGKERELVAAISSGGSTYYADSVKGRFTISRDNAKNTVYLQMNSLKPEDTAVYYCAESRVGYYRYEYWGQGTQVTVSS | low polyreactivity
QVQLVESGGGLVQAGGSLRLSCAASGRTFRKYAMGWYRQAPGKEMELVAGITSIGGRTYYADSVKGRFTISRDNAKNTVYLQMNSLKPEDTAVYYCAADSIGRKNWSLHSNYWGQGTQVTVSS | low polyreactivity
QVQLVESGGGLVQAGGSLRLSCAASGNIFPRNAMGWYRQAPGKERELVAAISASGDNTYYADSVKGRFTISRDNAKNTVYLQMNSLKPEDTAVYYCAAGTFYESIQPYESVAYDYWGQGTQVTVSS | low polyreactivity
QVQLVESGGGLVQAGGSLRLSCAASGLTFKWNTMGWYRQAPGKERELVAAISWRVVSTYYADSVKGRFTISRDNAKNTFYLQMNSLKQEDTAVYYDYWGQGTQVTVSS | low polyreactivity
QVQLVESGGGLGQAGGSLLLSCAASGTFYTYAMGWYRQAPAKERELVAAINGGGRTYYADSVKGRITISRDNAKNSVYFQMNSLKPEDTAVYYCAAVRRISRYDYWGQGTQVTVSS | high polyreactivity
QVQLVESGGGLVQAGGSLRLSCAASGRTFPHYAMGWYRQAPGKVRELVAAISSRGGSTYYADSVKGRFTISRDNVKNTVYLQMNSLKPEDTAVYYCAATVGLYRSREYGYWGQGTQVTVSS | low polyreactivity
QVQLVESGGGLVQAGGSLRLSWAASGRTFDYNAMGWYRQAPGKERELVAAITSSGGSTYYADSVKGRFTISRDNAKNTVYLQMNSLKPEDTAVYYCDTDGQSPYYIYYWGQGTQVTVSS | low polyreactivity
QVQLVESGGGLVQAGGSLRLSSAASGRIFRVNAMGLYTQAPGKERELVAAISRRGGSTYYADSVKGRFTISRDNAKNTVYLQMNTLKPEDTAVYYCAKKSYSYGYNSYYYWGQGTQVTVSS | high polyreactivity
QVQLVESGGGLVQAGGTLRLSCAASGFTFNYYAMGWYRQAPGKERELFAAISSRGTGTYYADSVKGRFTISRDNAKNTVYFQMNSLKPEDTAVYYCAADWFTWSWQETRYGYWGQGTQVTVSS | high polyreactivity
QVQLVESGGGLVQAGGSLRLSCAASGSIFYSYTMGWYRQAPGKEMELVAAINSGGSTYYADSVKGRFTISRDNAKNTVYLQMNSLKREDTAVYYCAARRTTSSGGYYYWGQGTQVTVSS | high polyreactivity
QVQLVESGGGLDQAGGSLRLICAASGSTFGGYVMGWYRQAPGKERELVAAISRSGASTYYADSVKGRFTISRDNAKNTVYLQMNSLKPEDTAVYYCAAYQARGMDYWGQGTQVTVSS | high polyreactivity
QVQLVESGGALVQAGGSLRLSCAASGSTFYGYAMGWYRQATGKERELVASITTRGGRTNYADSVKVRFTISRDNAKNTVYLEMNSLKPEDNSVYYCATYSYVTRYARWGEFDYWGQGTQVTVSS | high polyreactivity
QVQLVESGGGLVQAGGSLRLSCAASGRIIGLYTMGWYRQAPGKERELVARITSGDRTYYADSVKGRFTISRDNAKNTVYLQMNSLKPEDTAVYYCAAEFTYRYDYWGQGTQVTVSS | high polyreactivity

Sequence | polyreactivity (PSR sort gate)
QVQLVESGGGLVQAGGSLRLSCAASGIIFVYNAMGWYRQAPGKERELVAVISFIGDSTYYADSVKGRFTISRDNAKNTVYLQMNSLKPEDTAVYYCAADYYLPYWFFVGYDYWGQGTQVTVSS | low polyreactivity
QVQLVESGVCLVQAGRSLRLSCAASGRTFGYYAMGWYRQAPGKERELVAGITLSGGSTYYADSVKGRFTISRDNAKNTVYLQMNSLKPDDTAVYYCAARRRGRAGRDDYWGQGTQVTVSS | high polyreactivity
QVQLVESGGGLVQAGGSLRISCAASGLTFTSNVMGWYRQAPGKERELVAAISSGGSTYYADSVKGRFTISRDNAKNTVYLQMNSLKPEDTAVYYCNTKLWGQYDYWGQGTQVTVSS | low polyreactivity
QVQLVESGGGLVQAGGSLRLSCAASGRTFNPYVMGWYRQAPGKERELVAVITSSGDSTYYADSVKGRFTISRDNAKNTVYLQMNSLKPEDTAVYYCNADYLYYDYDYWGQGTQVTVSS | high polyreactivity
QVQLVESGGGLVQAGGSLRLSCAASGGIFAYYGMGWYRQAPGKERELVAAIWIGGNTYYADSVKGRFTISRDNAKNTVYLQMNSLKPEDTAVYDCAAAGSAYYSTRKWDSYYYWGQGTQVTVSS | low polyreactivity
QVQLVESGGGLVQAGGSLRLSCAASGITLGYYAMGWYRQAPGKERELVAAISYRGGNTYYADSVKGRFTISRDNAKNTVYLQMNSLKPEDTAVYYCNADLGYESGWWSKYDYWGQGNQVTVSS | low polyreactivity
QVQLVESGGGLVQAGGSLRLSCAASGFTFRGNVMGWYRQAPGKERELVAGISSTGSGRTYYADSVKGRFTISRDNAKNTVYLQMNSLKPEDTAVYYCAASRTLRKHRYEYWGQGTQVTVSS | high polyreactivity
QVQLVESGGGLVQAGGSLRLSCAASGIIFRYNALGWYRQAPGKERELVSPISVSGGSTYYADSVKGRFTISRDNAKNTVYLQMNSLQPEDTAVYYCAALLYRYGVHQAEHDYWGQGTQVTVSS | high polyreactivity
QVQLVESGGGLVQAGGSLRLSCAASGRIFARNALGWYRQAPGKEGELVARIRASGGSTYYADSVKGRFTISRDNAKNTVYLQMNSLKPEDTAVYYCNARTSSPYRVDYWGQGTQVTVSS | high polyreactivity
QVQLVESGGGLVQAGGSLRLSCAASGSIFDSNAMGWYRQAPGKERELVAAITVSGGDTYYADSVKGRFTISRDNAKNTVYLQMISLKPEDTAVYYCAKQWFTYPYYYWGQGSQVTVSS | high polyreactivity
QVQLVESGGGIVQAGGSLRLSCAASGITFGSYVMGWYRQAPGKERELVAAINIGGGTYYADSVKGRFTISRDNAKNTVYLQMISLKPEDTAVYYCARDFYWYYRAARLDYWGQGTQVTVSS | high polyreactivity
QVQLVESGGGLVQAGGSLRLSCAASGSIFIYYAMGWYRQAPGKEREFVAAISTSTADTYYADSVKGRFTISRDNAKNTVYLQMNSLKPEDTAVYYCAAECRPKWYYWAEGYYWGQGTQVTVSS | high polyreactivity
QVQLVESGGGLDQAGGSLRLSCAASGLTFDANAMGWYRQAPGKERELVAAISSGGSTYADSVKGRFTISRDNAKNTVYLQMNSLKPEDTAVYYCNAVSIDVIQGDYNYWGQGTQVTVSS | low polyreactivity
QVQLVESGGGLVQAGGSLRLSCAASGSTFTIYAMGWYRQAPGKERELVAAISSGGGDTDYADSVKGRFTISRDNAKNTVYLQMNSLKPEDTAVYYCNAEGTSPRTGYDYWGQGTQVTVSS | low polyreactivity
QVQIVESGGGLFQAGGSLRLSCAASGGIFDFYAMGWYRPATGKEWELVAAITRSGSSTFYADSVKGRFTISRDNAKNTVYLQMNILKPEDTAVYYCAAPYSYFAVYYGYIVEYDYWGQGTQVTVSS | low polyreactivity
QVQLVESGGGLVQAGGSLRLSCAASGFIFEGNAMGWYRPAPGKERELVAAISWSGGRTFYADSVKGRFTISRDNAKNTVYLQMNSLKPEDTAVYYCNALPGRRRWQVDYWGQGTQVTVSS | high polyreactivity
QVQLVESGGGLVQAGGSLRLSCAASGRIFVWNTMGWYRQAPGKERELVAAITSGGSTTYADSVKGRFTISRDNAKNTVYLQMNSLKPEDTAVYYCNTELDLYHPGDDYWGQGTQVTVSS | high polyreactivity
QVQLVESGGGLVQAGGTLRLSCAASGRTFGTYAMGWYRQEPGKERELVAAIRSNAGSTYYADSVKGRFTISRDNAKNTVYLQMNSLKPEDTAVYYCAKSYPSSRRYNFWGQGTQVTVSS | high polyreactivity
QVQLVESGGGLVQAGGSLRLSCAASGRILPRNAMGWYRQAPGKERELVAAISWDGGSTYYADSVKGRFTISRDNAKNTDYLHMNSLKPEDTAVYYCATDYPSLHRGMDYWGQGTQVTVSS | low polyreactivity
QVQLVESGGGLVQAGGSLRLSCAASGRIFGSYAMGWYRPAPGKERELVAGIRSVGSTNYADSVKGRFTISRDNAKNTVYLQMNSLKPEDTAVYYCAARLWHLSYAGQGGDYWGQGTQVTVSS | low polyreactivity
QVQLVESGGGLVQAGGSLRLSCAASGSTFVVYAMGWYRQAPGKERELVAAISSSGGSTYYADSVKGRFTISRDNAKNTVYLQMNSLKPEDTAVYYCAAGSRFVSSRLYYWGQGTQVTVSS | high polyreactivity
